Experimental data as given in the supplement of paper PMC9112550, “Optimization of the antimicrobial peptide Bac7 by deep mutational scanning” (BMC Biology, 2022).

Each sequence was assayed on Escherichia coli TOP10 (assay: shrunken log2 fold change of peptide-encoding DNA abundance (4.5 h post-induction vs induction); higher = less antimicrobial activity (less host growth inhibition)). Conditions: time post-induction: 4.5 h; library: site-saturation at positions 5, 18, 19, 20.
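Further: peptides expressed intracellularly from a pBAD plasmid library in pooled LB shake-flask culture, induced with 0.3% L-arabinose, DNA abundance read by NGS, three biological replicates, DESeq2 with apeglm shrinkage.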

Sequence | shrunken log2 fold change
RRIRKRPPRLPRPRPRPGMRPRP | 0.926
RRIRKRPPRLPRPRPRPGNGPRP | 0.351
RRIRKRPPRLPRPRPRPGPCPRP | 0.393
RRIRKRPPRLPRPRPRPGPFPRP | 0.56
RRIRKRPPRLPRPRPRPGPLPRP | 0.578
RRIRKRPPRLPRPRPRPGPPPRP | 0.922
RRIRKRPPRLPRPRPRPGQCPRP | 0.0394
RRIRKRPPRLPRPRPRPGQKPRP | 0.212
RRIRKRPPRLPRPRPRPGQLPRP | 0.236
RRIRKRPPRLPRPRPRPGSFPRP | 0.133
RRIRKRPPRLPRPRPRPGTTPRP | 0.157
RRIRKRPPRLPRPRPRPGVFPRP | 0.417
RRIRKRPPRLPRPRPRPGVWPRP | 0.786
RRIRKRPPRLPRPRPRPGVYPRP | 2.46
RRIRKRPPRLPRPRPRPGWEPRP | -0.00146
RRIRKRPPRLPRPRPRPGWFPRP | 0.139
RRIRKRPPRLPRPRPRPHASPRP | 0.073
RRIRKRPPRLPRPRPRPHCSPRP | 0.063
RRIRKRPPRLPRPRPRPHDHPRP | -0.162
RRIRKRPPRLPRPRPRPHDMPRP | 0.0328
RRIRKRPPRLPRPRPRPHEAPRP | -0.022
RRIRKRPPRLPRPRPRPHELPRP | 0.509
RRIRKRPPRLPRPRPRPHERPRP | 0.231
RRIRKRPPRLPRPRPRPHFKPRP | -0.0252
RRIRKRPPRLPRPRPRPHFTPRP | -0.0881

Sequence | shrunken log2 fold change
RRIRKRPPRLPRPRPRPHHEPRP | -0.0045
RRIRKRPPRLPRPRPRPHHRPRP | -0.0531
RRIRKRPPRLPRPRPRPHLTPRP | 0.055
RRIRKRPPRLPRPRPRPHMYPRP | -0.131
RRIRKRPPRLPRPRPRPHNMPRP | -0.438
RRIRKRPPRLPRPRPRPHNNPRP | -0.244
RRIRKRPPRLPRPRPRPHNSPRP | -0.24
RRIRKRPPRLPRPRPRPHNVPRP | -0.097
RRIRKRPPRLPRPRPRPHPFPRP | 0.188
RRIRKRPPRLPRPRPRPHPIPRP | 0.0828
RRIRKRPPRLPRPRPRPHPLPRP | 0.393
RRIRKRPPRLPRPRPRPHQIPRP | 0.0638
RRIRKRPPRLPRPRPRPHQVPRP | -0.182
RRIRKRPPRLPRPRPRPHRMPRP | -0.0995
RRIRKRPPRLPRPRPRPHRVPRP | 0.34
RRIRKRPPRLPRPRPRPHSSPRP | 0.0945
RRIRKRPPRLPRPRPRPHTGPRP | -0.0786
RRIRKRPPRLPRPRPRPHTPPRP | 0.0819
RRIRKRPPRLPRPRPRPHVTPRP | -0.0241
RRIRKRPPRLPRPRPRPHWGPRP | 0.209
RRIRKRPPRLPRPRPRPIADPRP | -0.125
RRIRKRPPRLPRPRPRPICFPRP | 0.272
RRIRKRPPRLPRPRPRPICMPRP | 0.0199
RRIRKRPPRLPRPRPRPIDYPRP | -0.0337
RRIRKRPPRLPRPRPRPIENPRP | -0.0721

Sequence | shrunken log2 fold change
RRIRKRPPRLPRPRPRPIEPPRP | 0.0245
RRIRKRPPRLPRPRPRPIEQPRP | -0.0195
RRIRKRPPRLPRPRPRPIEWPRP | 0.404
RRIRKRPPRLPRPRPRPIIVPRP | 0.0373
RRIRKRPPRLPRPRPRPIKVPRP | -0.386
RRIRKRPPRLPRPRPRPIMIPRP | -0.0532
RRIRKRPPRLPRPRPRPIMLPRP | 0.0564
RRIRKRPPRLPRPRPRPINEPRP | -0.215
RRIRKRPPRLPRPRPRPINIPRP | -0.0728
RRIRKRPPRLPRPRPRPINLPRP | -0.00204
RRIRKRPPRLPRPRPRPINNPRP | -0.298
RRIRKRPPRLPRPRPRPIPIPRP | 0.136
RRIRKRPPRLPRPRPRPIQKPRP | 0.0671
RRIRKRPPRLPRPRPRPIQTPRP | 0.0355
RRIRKRPPRLPRPRPRPIRFPRP | -0.186
RRIRKRPPRLPRPRPRPIRPPRP | 0.012
RRIRKRPPRLPRPRPRPISEPRP | 0.213
RRIRKRPPRLPRPRPRPIVLPRP | -0.299
RRIRKRPPRLPRPRPRPIVWPRP | 0.527
RRIRKRPPRLPRPRPRPIWEPRP | 0.295
RRIRKRPPRLPRPRPRPIWGPRP | -0.0432
RRIRKRPPRLPRPRPRPIWMPRP | -0.0467
RRIRKRPPRLPRPRPRPIWVPRP | 0.00396
RRIRKRPPRLPRPRPRPIYCPRP | -0.0201
RRIRKRPPRLPRPRPRPIYIPRP | -0.127

Sequence | shrunken log2 fold change
RRIRKRPPRLPRPRPRPIYWPRP | 0.165
RRIRKRPPRLPRPRPRPKASPRP | 0.0517
RRIRKRPPRLPRPRPRPKDGPRP | 0.0893
RRIRKRPPRLPRPRPRPKDIPRP | -0.261
RRIRKRPPRLPRPRPRPKFNPRP | -0.0876
RRIRKRPPRLPRPRPRPKGHPRP | 0.123
RRIRKRPPRLPRPRPRPKICPRP | 0.0599
RRIRKRPPRLPRPRPRPKIKPRP | 0.447
RRIRKRPPRLPRPRPRPKITPRP | 0.0975
RRIRKRPPRLPRPRPRPKIYPRP | -0.0249
RRIRKRPPRLPRPRPRPKLCPRP | 0.515
RRIRKRPPRLPRPRPRPKLLPRP | -0.158
RRIRKRPPRLPRPRPRPKMPPRP | 0.0535
RRIRKRPPRLPRPRPRPKNIPRP | -0.253
RRIRKRPPRLPRPRPRPKPTPRP | 0.7
RRIRKRPPRLPRPRPRPKQAPRP | 0.00509
RRIRKRPPRLPRPRPRPKQTPRP | 0.00774
RRIRKRPPRLPRPRPRPKRPPRP | 0.552
RRIRKRPPRLPRPRPRPKRVPRP | 0.717
RRIRKRPPRLPRPRPRPKSHPRP | 0.0104
RRIRKRPPRLPRPRPRPKSVPRP | 0.451
RRIRKRPPRLPRPRPRPKTPPRP | 0.477
RRIRKRPPRLPRPRPRPKVKPRP | 0.116
RRIRKRPPRLPRPRPRPKVVPRP | 0.223
RRIRKRPPRLPRPRPRPKVYPRP | -0.124

Sequence | shrunken log2 fold change
RRIRKRPPRLPRPRPRPKWKPRP | 0.479
RRIRKRPPRLPRPRPRPKYAPRP | 0.208
RRIRKRPPRLPRPRPRPKYPPRP | 0.0162
RRIRKRPPRLPRPRPRPLCWPRP | 0.52
RRIRKRPPRLPRPRPRPLEKPRP | 0.219
RRIRKRPPRLPRPRPRPLFIPRP | -0.291
RRIRKRPPRLPRPRPRPLGKPRP | 0.39
RRIRKRPPRLPRPRPRPLGRPRP | 1.35
RRIRKRPPRLPRPRPRPLHIPRP | -0.172
RRIRKRPPRLPRPRPRPLHQPRP | 0.393
RRIRKRPPRLPRPRPRPLIMPRP | -0.376
RRIRKRPPRLPRPRPRPLKEPRP | 0.0921
RRIRKRPPRLPRPRPRPLMHPRP | 0.0704
RRIRKRPPRLPRPRPRPLNVPRP | 0.252
RRIRKRPPRLPRPRPRPLPLPRP | 0.387
RRIRKRPPRLPRPRPRPLPWPRP | 0.814
RRIRKRPPRLPRPRPRPLQFPRP | -0.076
RRIRKRPPRLPRPRPRPLVWPRP | 0.298
RRIRKRPPRLPRPRPRPLWRPRP | 0.609
RRIRKRPPRLPRPRPRPLYTPRP | -0.288
RRIRKRPPRLPRPRPRPLYVPRP | 0.0738
RRIRKRPPRLPRPRPRPMAFPRP | 0.25
RRIRKRPPRLPRPRPRPMAMPRP | 0.325
RRIRKRPPRLPRPRPRPMCQPRP | -0.0286
RRIRKRPPRLPRPRPRPMDNPRP | 0.103

Sequence | shrunken log2 fold change
RRIRKRPPRLPRPRPRPMEEPRP | 0.371
RRIRKRPPRLPRPRPRPMEPPRP | 0.0318
RRIRKRPPRLPRPRPRPMFAPRP | 0.485
RRIRKRPPRLPRPRPRPMFGPRP | 0.112
RRIRKRPPRLPRPRPRPMFIPRP | -0.0367
RRIRKRPPRLPRPRPRPMFQPRP | -0.0168
RRIRKRPPRLPRPRPRPMICPRP | 0.0303
RRIRKRPPRLPRPRPRPMIDPRP | 0.21
RRIRKRPPRLPRPRPRPMIRPRP | 0.134
RRIRKRPPRLPRPRPRPMKGPRP | -0.156
RRIRKRPPRLPRPRPRPMLDPRP | 0.16
RRIRKRPPRLPRPRPRPMLLPRP | -0.0797
RRIRKRPPRLPRPRPRPMNIPRP | -0.213
RRIRKRPPRLPRPRPRPMNYPRP | 0.474
RRIRKRPPRLPRPRPRPMRWPRP | 1.41
RRIRKRPPRLPRPRPRPMSLPRP | 0.474
RRIRKRPPRLPRPRPRPMSRPRP | 0.0843
RRIRKRPPRLPRPRPRPMTVPRP | 0.0686
RRIRKRPPRLPRPRPRPMVQPRP | 0.208
RRIRKRPPRLPRPRPRPMVVPRP | -0.0348
RRIRKRPPRLPRPRPRPMYHPRP | -0.0356
RRIRKRPPRLPRPRPRPMYKPRP | -0.0655
RRIRKRPPRLPRPRPRPNCCPRP | 0.179
RRIRKRPPRLPRPRPRPNCNPRP | 0.00173
RRIRKRPPRLPRPRPRPNDHPRP | -0.177
